Experimental data from paper doi:10.1101/317677.

Molecular target: T1, Lon (wildtype) (UniProt P0CAW0 1-799)
T1 sequence: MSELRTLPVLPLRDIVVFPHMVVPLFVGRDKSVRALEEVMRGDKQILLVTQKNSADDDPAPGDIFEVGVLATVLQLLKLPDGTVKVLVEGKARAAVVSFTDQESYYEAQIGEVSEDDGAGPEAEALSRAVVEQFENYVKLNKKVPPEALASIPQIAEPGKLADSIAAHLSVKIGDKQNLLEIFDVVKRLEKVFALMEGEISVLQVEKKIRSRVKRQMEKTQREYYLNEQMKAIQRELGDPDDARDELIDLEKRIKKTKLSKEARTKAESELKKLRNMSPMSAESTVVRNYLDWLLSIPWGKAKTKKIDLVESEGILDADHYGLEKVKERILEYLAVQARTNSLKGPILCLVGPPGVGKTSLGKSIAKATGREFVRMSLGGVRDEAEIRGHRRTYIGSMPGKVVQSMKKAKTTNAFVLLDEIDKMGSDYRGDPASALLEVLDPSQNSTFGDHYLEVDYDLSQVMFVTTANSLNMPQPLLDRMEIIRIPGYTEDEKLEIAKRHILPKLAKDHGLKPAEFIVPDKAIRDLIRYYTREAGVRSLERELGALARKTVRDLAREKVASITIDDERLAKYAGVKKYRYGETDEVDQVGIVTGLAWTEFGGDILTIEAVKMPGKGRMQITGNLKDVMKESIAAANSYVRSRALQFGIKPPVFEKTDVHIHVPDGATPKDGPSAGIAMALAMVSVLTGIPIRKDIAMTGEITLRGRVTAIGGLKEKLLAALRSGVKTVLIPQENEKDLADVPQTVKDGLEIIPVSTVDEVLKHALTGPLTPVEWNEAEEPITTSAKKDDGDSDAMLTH
Assay: fluorescence polarization

B1: FAM-DNA oligo (ssDNA)
DNA: AACGGATGATCCACAGGAGAGTCTGGCGCAGGGCGAGAG
For B1, the Kd was 286 nM.
